Data published in patent publication US20060286117A1, “Neuronally expressed stem cell factor modulates angiogenesis and neural stem cell migration to areas of brain injury” (priority 2003, published 2006).
Entries after “also recorded” stand apart in the source; their conditions may differ.

Assays:
BMVEC-b [1] = experiment: Thymidine incorporation in BMVEC-b exposed to SCF; format: cell-based, bovine; settings: basal medium
Description: After ECs (3×10^3/well) were adhered to 96-well gelatin-coated plates (BD Discovery Labware, Bedford, Mass.), the EC growth medium was replaced by SCF ([…]) (R&D Systems, Minneapolis, Minn.) suspended in treatment medium (basal medium with 0.1% BSA) for an additional 48 hr (HUVEC and HMVEC-d) or 72 hr (BMVEC-b) with renewal of medium at 24 hr intervals. ECs were cultured for 4 hr in 0.25 μCi of [^3H]thymidine (Amersham Pharmacia Biotech, Piscataway, N.J.) at the end. High molecular mass [^3H]-radioactivity was precipitated and counted.

SCID mice = experiment: In vivo angiogenesis assay, subcutaneous Matrigel plugs with SCF or β-FGF; set-up: species or system mouse; settings: subcutaneous Matrigel in adult SCID mice, fourteen days after injection
Description: (§1) Confluent-grown ECs were treated with 50 ng/ml of SCF for 5, 10, 15, and 30 min after 24 hr of serum starvation. The ECs were collected with RIPA lysis buffer (Upstate, Charlottesville, Va.) containing 50 mM NaF, 1 mM Na3VO4, […], and Protease Inhibitor Cocktail (Roche). The antibodies were purchased from Cell Signaling Technology, Inc. (Beverly, Mass.) or as mentioned otherwise. All the primary antibodies were used in a 1:1000 dilution except for the anti-SCF antibody, which was used in a 1:2000 dilution. The primary antibodies were anti-phospho-c-Kit, anti-phospho-MEK1/2 and anti-MEK1/2, anti-phospho-p44/42 MAPK and anti-p44/42 MAPK, anti-phospho-SAPK/JNK and anti-SAPK/JNK, anti-phospho-p38 MAPK and anti-p38 MAPK, anti-phospho-Akt and anti-Akt, anti-phospho-mTOR and anti-mTOR, anti-phospho-4E-BP1 and anti-4E-BP1, anti-SCF and anti-VEGF (Chemicon, Temecula, Calif.), and anti-β-tubulin (Sigma). Re-blotting was done after membranes were stripped by re-blot kit (Chemicon). Tie2 detection in Matrigel plugs from the in vivo Matrigel assay was carried out by immunoprecipitation and immunoblotting. The gel plugs were carefully separated from muscle and skin and homogenized with RIPA lysis buffer. The resulting total tissue lysates ([…]) were immunoprecipitated with Tie2 antibody (Santa Cruz Biotechnology, Inc., Santa Cruz, Calif.) and then analyzed by immunoblot with Tie2 antibody (Zadeh et al. 2004 Am J Pathol 162:467-476).
All adult mice (6-8 weeks of age) were from NCI-Fredrick, and the animal experiments were conducted on an animal experimentation protocol approved by the NCI's animal protection committee (the “ACUC”). […]

HBMEC = experiment: EC proliferation, HBMEC exposed to SCF; format: cell-based, human
endogenous NSPCs = experiment: In vivo progenitor cell migration, BrdU labeling and intracerebral rmSCF injection; set-up: species or system mouse; settings: vs contralateral side and PBS-injected animals, day 7
BMVEC-b [2] = experiment: Matrigel tube formation (EC differentiation) assay, BMVEC-b; format: cell-based, bovine; settings: SCF 20 ng/ml
Description: After the Matrigel (BD Biosciences) formed a solid gel in 24-well plates, serum-starved BMVEC-b cells were seeded on the gel surface at 10^5 cells per well and cultured in treatment medium in the presence or absence of SCF (20 ng/ml). Primary HBMEC were placed on the gel directly at 24×10^3 per well. Tubular formation was observed using an inverted phase contrast microscope, and images were captured at 4 and 18 hr after cell seeding. Each experiment was repeated two or three times.

[3] = tested on: c-Kit, MAPK and PI3K/Akt pathways in BMVEC-b; experiment: Immunoblot of SCF/c-Kit signal transduction, BMVEC-b; format: cell-based, bovine
Description: as §1

[4] = SCF 50 ng/ml after serum starvation

B1: SCF: Stem cell factor protein (R&D Systems), ligand of the c-Kit receptor (protein)
chain: KEICGNPVTDNVKDITKLVANLPNDYMITLNYVAGMDVLPSHCWLRDMVIQLSLSLTTLLDKFSNISEGLSNYSIIDKLGKIVDDLVLCMEENAPKNIKESPKRPETRSFTPEEFFSIFNRSIDAFKDFMVASDTSDCVLSSTLGPEKDSRVSVTKPFMLPPVA
Q: B1 was tested. Which “BMVEC-b proliferation increase (thymidine incorporation)” value (BMVEC-b [1]; 1 ng of SCF per ml for 72 hr) did it give?
A: approximately 6 fold

Q: What about the “BMVEC-b proliferation increase (thymidine incorporation)” value (BMVEC-b [1]; 10 ng of SCF per ml for 72 hr) of the same molecule?
A: ~7 fold

Q: What about the “proliferation (thymidine incorporation)” value (BMVEC-b [1]; BMVEC-b, 72 hr) of the same molecule?
A: stimulated proliferation in all three primary ECs in a dose-dependent manner

Q: And the “Tie2 protein in Matrigel plug” value (SCID mice)?
A: high Tie2 expression

Q: What about the “angiogenesis in Matrigel plug (H&E, vWF-positive vessels)” value (SCID mice) of the same molecule?
A: high density of blood vessels; also recorded: induced substantial angiogenesis

Q: And the HBMEC proliferative response (HBMEC; SCF from 0.1 to 10 ng per ml)?
A: dose-dependent growth

Q: What about the “EC growth and survival with SCF alone” value (HBMEC; without the addition of other cytokines such as VEGF) of the same molecule?
A: sufficient to sustain human brain microvascular EC and other EC cell growth and survival

Q: What about the “BrdU-positive cells in the SCF-injected area” value (endogenous NSPCs) of the same molecule?
A: Significantly more BrdU labeled cells

Q: And the “time to mature appearing capillary-like structures” value (BMVEC-b [2])?
A: ≤ 18 h

Q: What about the “time to migration in Matrigel” value (BMVEC-b [2]) of the same molecule?
A: ≤ 4 h

Q: What about the “duration of p38 MAPK activation” value ([3]; SCF 50 ng/ml) of the same molecule?
A: over 30 min

Q: What about the “phosphorylation of 4E-BP1” value ([3]; SCF 50 ng/ml) of the same molecule?
A: increased phosphorylation of 4E-BP1

Q: What about the “phosphorylation of Akt” value ([3]; SCF 50 ng/ml) of the same molecule?
A: significantly enhanced

Q: And the “phosphorylation of MEK1/2” value ([3]; SCF 50 ng/ml)?
A: dramatically increased

Q: What about the “phosphorylation of p44/42 MAPK” value ([3]; SCF 50 ng/ml) of the same molecule?
A: dramatically increased

Q: And the “time of SAPK/JNK activation following SCF exposure” value ([3]; SCF 50 ng/ml)?
A: 10 to 15 min

Q: What about the “duration of c-Kit auto-tyrosine-phosphorylation” value [3, 4] of the same molecule?
A: 30 min

Q: And the “time of peak c-Kit auto-tyrosine-phosphorylation” value [3, 4]?
A: 10 to 15 min
